Assay results reported in the supplement of paper PMC7125110.
± gives the standard error. This sample holds only a part of the variants without activity.

B1: glmS ribozyme (parent)
chain: AUAAAAGCGCCAGAACUACAGAAAUGUAGUUGACGAGGAGGAGGUUUAUCGAAUUUUCGGCGGAUGCCUCCAAA

Tests used:
Conditions in all cases: with glucosamine-6-phosphate
glucosamine-6-phosphate [1] = variants of: B1; assay: self-cleavage kobs at 40 uM GlcN6P; higher = faster cleavage; RNA array
How it was run: (§1)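 Barcoded glmS ribozyme variants on sequenced MiSeq chips were transcribed in situ by E. coli RNA polymerase and tracked through a hybridised Cy3 probe at 37 °C. Glucosamine-6-phosphate (40 μM to 10 mM) in HEPES/KCl/Mg(OAc)2 buffer was flowed in, and tiles were imaged over ~14 h. Signals were normalised to baseline and to non-cleaving reference variants; per-tile medians were fit to one- or two-exponential decays to give kobs. kcat and KM came from weighted Michaelis–Menten fits across concentrations.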

glucosamine-6-phosphate [2] = variants of: B1; assay: self-cleavage kobs at 2500 uM GlcN6P; higher = faster cleavage; RNA array
How it was run: as §1

glucosamine-6-phosphate [3] = variants of: B1; assay: self-cleavage kobs at 10000 uM GlcN6P; higher = faster cleavage; RNA array
How it was run: as §1

glucosamine-6-phosphate [4] = variants of: B1; assay: self-cleavage kobs at 160 uM GlcN6P; higher = faster cleavage; RNA array
How it was run: as §1

glucosamine-6-phosphate [5] = variants of: B1; assay: self-cleavage kobs at 640 uM GlcN6P; higher = faster cleavage; RNA array
How it was run: as §1

| Variant | self-cleavage kobs at 40 uM GlcN6P (glucosamine-6-phosphate [1]) [s⁻¹] | self-cleavage kobs at 2500 uM GlcN6P (glucosamine-6-phosphate [2]) [s⁻¹] | self-cleavage kobs at 10000 uM GlcN6P (glucosamine-6-phosphate [3]) [s⁻¹] | self-cleavage kobs at 160 uM GlcN6P (glucosamine-6-phosphate [4]) [s⁻¹] | self-cleavage kobs at 640 uM GlcN6P (glucosamine-6-phosphate [5]) [s⁻¹] |
| --- | --- | --- | --- | --- | --- |
| A33U U47A U54C | < 1e-05 | 4.24e-05 ± 2e-05 | 7.82e-05 ± 1.8e-05 |  |  |
| G38C G43U | < 1e-05 | < 1e-05 | < 1e-05 | < 1e-05 | < 1e-05 |
| G37C U57A | < 1e-05 |  | < 1e-05 |  | < 1e-05 |
| A33G U45A C50G U54G G60A C67A | 0.000354 ± 9.5e-05 |  | 0.000164 ± 5.5e-05 |  |  |
| G37C A48C | < 1e-05 | < 1e-05 | < 1e-05 |  | < 1e-05 |
| A39C U49G | < 1e-05 | 4.21e-05 ± 1.9e-05 | 6.91e-05 ± 9.5e-06 | < 1e-05 |  |
| C34A C70U | < 1e-05 |  |  | < 1e-05 |  |
| A36G A42G A52G | < 1e-05 | < 1e-05 |  |  | < 1e-05 |
| A39U U54G U55G | 0.000181 ± 6.2e-05 | 0.0171 ± 0.0034 |  |  | 0.00525 ± 0.0012 |
| A36C G44U U54G G66A C71A | < 1e-05 |  | < 1e-05 |  |  |
| A33U G59U G62A | < 1e-05 |  |  |  |  |
| A36U C50G U69C | 0.000561 ± 0.00011 |  | 0.000905 ± 0.00017 |  |  |
| A36C G59U C68G | < 1e-05 |  |  |  |  |
| G37C A52U A53U | < 1e-05 |  |  |  |  |
| C34A G38U U69A | < 1e-05 |  |  |  |  |
| A36C G37U G51U | < 1e-05 |  |  |  |  |
| G38U U45G C67U | < 1e-05 |  | < 1e-05 |  |  |
| G37C A39G C50U | < 1e-05 |  |  |  |  |
| G32C U49C | < 1e-05 |  |  | < 1e-05 |  |
| G32C U49A | < 1e-05 |  | < 1e-05 | < 1e-05 | < 1e-05 |
| C34U A48G | < 1e-05 | < 1e-05 | < 1e-05 | < 1e-05 | < 1e-05 |
| G35A G41A A48G C61U | < 1e-05 |  |  |  |  |
| G32C A39G | < 1e-05 | 3.52e-05 ± 1.2e-05 | 0.000101 ± 1.4e-05 | < 1e-05 |  |
| G32C A39C | < 1e-05 |  |  | < 1e-05 |  |
| A36U A64G U69A C71G | 6.16e-05 ± 2.9e-05 |  |  |  |  |
| A39U G59C | < 1e-05 | < 1e-05 | < 1e-05 | < 1e-05 | < 1e-05 |

| Variant | self-cleavage kobs at 40 uM GlcN6P (glucosamine-6-phosphate [1]) [s⁻¹] | self-cleavage kobs at 2500 uM GlcN6P (glucosamine-6-phosphate [2]) [s⁻¹] | self-cleavage kobs at 10000 uM GlcN6P (glucosamine-6-phosphate [3]) [s⁻¹] | self-cleavage kobs at 160 uM GlcN6P (glucosamine-6-phosphate [4]) [s⁻¹] | self-cleavage kobs at 640 uM GlcN6P (glucosamine-6-phosphate [5]) [s⁻¹] |
| --- | --- | --- | --- | --- | --- |
| G35A U49G | < 1e-05 |  |  |  |  |
| C34G G37U G38C U47G U56C | < 1e-05 |  | < 1e-05 |  |  |
| C34G G41A G44U A53U | < 1e-05 |  | < 1e-05 |  |  |
| G35C G41U G51C | < 1e-05 | < 1e-05 |  |  |  |
| C34U C50G | 5.12e-05 ± 1.3e-05 | 5.23e-05 ± 2.2e-05 |  | 0.000184 ± 3.2e-05 | 0.000831 ± 0.00035 |
| G35C U56G | < 1e-05 | < 1e-05 | < 1e-05 | < 1e-05 | < 1e-05 |
| G35C U56C | < 1e-05 | < 1e-05 | < 1e-05 | < 1e-05 | < 1e-05 |
| A36G G62C C67U | < 1e-05 |  | < 1e-05 |  |  |
| C34A C50G C71U | 6.66e-05 ± 3e-05 | 0.000247 ± 0.00012 | 6.4e-05 ± 2.5e-05 | 0.000155 ± 6.7e-05 | 0.000408 ± 0.0001 |
| A39G C71A | 0.000536 ± 7.8e-05 | 0.00277 ± 0.00061 | 0.00612 ± 0.0011 | 0.000645 ± 9.8e-05 | 0.00173 ± 0.00045 |
| G35C U69A C70G | < 1e-05 |  |  |  |  |
| G32C A36G C61U U69A | < 1e-05 |  |  |  |  |
| G35U U45A U57C C67A C68A | < 1e-05 |  | < 1e-05 |  |  |
| G32C G40A C50U C68A | < 1e-05 |  | < 1e-05 |  |  |
| G35U C68G | 0.000484 ± 0.00019 |  |  |  |  |
| G37C G41U | < 1e-05 | < 1e-05 | < 1e-05 | < 1e-05 | < 1e-05 |
| G37A G51A | < 1e-05 |  | < 1e-05 |  | < 1e-05 |
| G37C G43A C61A | < 1e-05 |  | < 1e-05 |  |  |
| C34A U45A | < 1e-05 | < 1e-05 |  | < 1e-05 | < 1e-05 |
| G35A U56C A64U | < 1e-05 |  | < 1e-05 |  | < 1e-05 |
| A36G G51A A52G | < 1e-05 |  |  |  |  |
| G38C A39C G40C C50A A53G U65C | < 1e-05 |  |  |  |  |
| G37U G40C G44U | < 1e-05 |  |  |  |  |
| A33C A36G C67G | < 1e-05 |  |  |  |  |
| G35A U54G C68G | 0.000144 ± 5.9e-05 |  |  |  |  |
